Experimental data reported in the supplement of paper PMC10724198.
± gives the standard deviation of the averaged measurements.

Tests used:
Saccharomyces cerevisiae [1] = assay: protein stability index of tFT-peptide fusion (C-terminal peptide) (PSI (0-1 scale)); higher = more stable (slower turnover); settings: genetic background: wild type; temperature: 30 C
Saccharomyces cerevisiae [2] = assay: as above
Experimental: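 MPS profiling in S. cerevisiae of the tFT-X12 degron library: putative degron peptides plus stable controls, 12 aa, fused to the C-terminus of a sfGFP-mCherry timer. Cells are FACS-sorted into 8 mCherry/sfGFP bins and deep-sequenced. PSI runs from 0 (unstable) to 1 (stable). Backgrounds are wild type, das1Δ and doa10Δ at 30 °C, and wild type, das1Δ, cdc34-1 and cdc53-1 at 37 °C; 2-3 technical replicates each.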

[3] = genetic background: cdc34-1, temperature: 37 C
[4] = genetic background: cdc53-1, temperature: 37 C
[5] = genetic background: das1 deletion, temperature: 30 C
[6] = genetic background: das1 deletion, temperature: 37 C
[7] = genetic background: doa10 deletion, temperature: 30 C
[8] = genetic background: wild type, temperature: 30 C
[9] = genetic background: wild type, temperature: 37 C
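Also: PSI is a weighted mean of sequencing reads over stability bins, variants kept only with over 10 reads, mCherry proximal and sfGFP distal, peptide attached via GGGS linker.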

Row | Sequence | protein stability index (Saccharomyces cerevisiae [1]) | protein stability index (Saccharomyces cerevisiae [2]; [3]) | protein stability index (Saccharomyces cerevisiae [2]; [4]) | protein stability index (Saccharomyces cerevisiae [2]; [5]) | protein stability index (Saccharomyces cerevisiae [2]; [6]) | protein stability index (Saccharomyces cerevisiae [2]; [7]) | protein stability index (Saccharomyces cerevisiae [2]; [8]) | protein stability index (Saccharomyces cerevisiae [2]; [9])
1 | QVLISLYVHGYF | 0.501 ± 0.008 | 0.551 ± 0.053 | 0.5374 ± 0.0037 | 0.453 ± 0.047 | 0.51 ± 0.017 | 0.388 ± 0.011 | 0.426 ± 0.02 | 0.519 ± 0.019
2 | RCCWWNAQAVWR | 0.578 ± 0.15 | 0.725 ± 0.043 | 0.7494 ± 0.0045 | 0.638 ± 0.029 | 0.752 ± 0.0039 | 0.655 ± 0.016 | 0.631 ± 0.032 | 0.73 ± 0.023
3 | RCLHTSVFLIFP | 0.459 ± 0.03 | 0.484 ± 0.012 | 0.488 ± 0.038 | 0.476 ± 0.038 | 0.604 ± 0.021 | 0.652 ± 0.026 | 0.488 ± 0.03 | 0.54 ± 0.008
4 | RDASLLFHFFVC | 0.199 ± 0.0058 | 0.507 ± 0.059 | 0.727 ± 0.014 | 0.614 ± 0.012 | 0.726 ± 0.011 | 0.0833 ± 0.018 | 0.0965 ± 0.0056 | 0.143 ± 0.015
5 | REGDLLKFKMRP | 0.725 ± 0.067 | 0.6854 ± 0.0054 | 0.727 ± 0.008 | 0.637 ± 0.024 | 0.716 ± 0.018 | 0.637 ± 0.037 | 0.639 ± 0.015 | 0.703 ± 0.027
6 | RFFVRRVRVAVL | 0.406 ± 0.0052 | 0.786 ± 0.036 | 0.817 ± 0.019 | 0.553 ± 0.055 | 0.687 ± 0.0081 | 0.386 ± 0.025 | 0.382 ± 0.031 | 0.578 ± 0.048
7 | RFICMMYLVYLC | 0.1405 ± 0.0006 | 0.142 ± 0.022 | 0.188 ± 0.023 | 0.192 ± 0.03 | 0.3 ± 0.016 | 0.0601 ± 0.035 | 0.0619 ± 0.018 | 0.073 ± 0.019
8 | RFLPYLPTPLSP | 0.52 ± 0.031 | 0.664 ± 0.026 | 0.7203 ± 0.0043 | 0.506 ± 0.016 | 0.5974 ± 0.0048 | 0.502 ± 0.016 | 0.513 ± 0.014 | 0.568 ± 0.011
9 | RGAVLLPSLWVV | 0.483 ± 0.061 | 0.659 ± 0.025 | 0.7044 ± 0.0028 | 0.577 ± 0.027 | 0.7355 ± 0.0068 | 0.356 ± 0.033 | 0.381 ± 0.022 | 0.551 ± 0.0061
10 | RGCLVHSGFFIV | 0.401 ± 0.067 | 0.65 ± 0.034 | 0.683 ± 0.011 | 0.62 ± 0.018 | 0.6898 ± 0.0051 | 0.212 ± 0.0034 | 0.239 ± 0.027 | 0.4987 ± 0.0029
11 | RGGVLYVSIRCK | 0.341 ± 0.053 | 0.282 ± 0.019 | 0.335 ± 0.0034 | 0.228 ± 0.032 | 0.397 ± 0.0054 | 0.186 ± 0.015 | 0.233 ± 0.037 | 0.386 ± 0.023
12 | RIHRRLIKNKRV | 0.162 ± 0.086 | 0.649 ± 0.021 | 0.7 ± 0.02 | 0.71 ± 0.036 | 0.739 ± 0.041 | 0.155 ± 0.028 | 0.156 ± 0.038 | 0.377 ± 0.023
13 | RIVSGVVLLVFV | 0.336 ± 0.035 | 0.404 ± 0.0079 | 0.469 ± 0.0074 | 0.237 ± 0.019 | 0.5234 ± 0.0034 | 0.206 ± 0.015 | 0.226 ± 0.042 | 0.527 ± 0.034
14 | RKGQNKKRNKIY | 0.399 ± 0.02 | 0.7504 ± 0.0028 | 0.767 ± 0.019 | 0.659 ± 0.008 | 0.7331 ± 0.0033 | 0.203 ± 0.028 | 0.295 ± 0.035 | 0.575 ± 0.044
15 | RKWLFFRSWRYV | 0.134 ± 0.002 | 0.476 ± 0.047 | 0.69 ± 0.012 | 0.626 ± 0.028 | 0.7486 ± 0.0024 | 0.0555 ± 0.024 | 0.0663 ± 0.011 | 0.0912 ± 0.024
16 | RLFIIYLLNIQG | 0.407 ± 0.019 | 0.37 ± 0.052 | 0.5289 ± 0.0034 | 0.311 ± 0.022 | 0.544 ± 0.022 | 0.263 ± 0.0062 | 0.305 ± 0.047 | 0.515 ± 0.022
17 | RLFSPPVLATPS | 0.0111 ± 0.016 | 0.654 ± 0.012 | 0.679 ± 0.025 | 0.525 ± 0.031 | 0.696 ± 0.021 | 0.51908 ± 0.00034 | 0.534 ± 0.019 | 0.6477 ± 0.0014
18 | RLIAVAGVVVVA | 0.477 ± 0.054 | 0.541 ± 0.032 | 0.5509 ± 0.0042 | 0.425 ± 0.025 | 0.5685 ± 0.0055 | 0.3997 ± 0.00095 | 0.431 ± 0.021 | 0.547 ± 0.0055
19 | RLLSIFKILHVG | 0.188 ± 0.036 | 0.526 ± 0.0063 | 0.6593 ± 0.0037 | 0.638 ± 0.013 | 0.705 ± 0.014 | 0.0881 ± 0.028 | 0.0968 ± 0.0051 | 0.1507 ± 0.00028
20 | RLRHPPRLSTLC | 0.463 ± 0.0095 | 0.635 ± 0.025 | 0.743 ± 0.00093 | 0.629 ± 0.029 | 0.73873 ± 0.00026 | 0.306 ± 0.018 | 0.338 ± 0.023 | 0.594 ± 0.069
21 | RLSTPFTVNHFI | 0.312 ± 0.099 | 0.613 ± 0.031 | 0.732 ± 0.035 | 0.696 ± 0.031 | 0.766 ± 0.0088 | 0.155 ± 0.04 | 0.168 ± 0.044 | 0.374 ± 0.044
22 | RLVPFMAVRVLF | 0.487 ± 0.044 | 0.571 ± 0.034 | 0.6204 ± 0.0016 | 0.517 ± 0.013 | 0.6492 ± 0.0023 | 0.413 ± 0.025 | 0.41 ± 0.018 | 0.5719 ± 0.0024
23 | RRVRVVCVIVAA | 0.373 ± 0.071 | 0.286 ± 0.0078 | 0.373 ± 0.009 | 0.238 ± 0.041 | 0.4735 ± 0.0028 | 0.189 ± 0.0071 | 0.221 ± 0.03 | 0.443 ± 0.025
24 | RSFNVGLELLVW | 0.398 ± 0.0062 | 0.382 ± 0.026 | 0.395 ± 0.035 | 0.295 ± 0.05 | 0.449 ± 0.0063 | 0.259 ± 0.0039 | 0.297 ± 0.046 | 0.4159 ± 0.001
25 | RTWFTYMSIPVW | 0.343 ± 0.024 | 0.196 ± 0.012 | 0.204 ± 0.069 | 0.234 ± 0.026 | 0.341 ± 0.01 | 0.189 ± 0.023 | 0.237 ± 0.026 | 0.311 ± 0.0057
26 | RVFGWIEVEVEG | 0.489 ± 0.079 | 0.5179 ± 0.001 | 0.565 ± 0.019 | 0.403 ± 0.023 | 0.5679 ± 0.0026 | 0.346 ± 0.018 | 0.386 ± 0.054 | 0.584 ± 0.007
27 | RVFRLDRRLQVV | 0.3 ± 0.0059 | 0.55 ± 0.02 | 0.633 ± 0.041 | 0.509 ± 0.018 | 0.638 ± 0.012 | 0.128 ± 0.012 | 0.154 ± 0.018 | 0.213 ± 0.005
28 | RVGSSLIVVYCV | 0.337 ± 0.022 | 0.452 ± 0.024 | 0.461 ± 0.017 | 0.264 ± 0.034 | 0.502 ± 0.0096 | 0.207 ± 0.0045 | 0.238 ± 0.023 | 0.427 ± 0.018
29 | RVLCLVSSLTLF | 0.441 ± 0.0073 | 0.549 ± 0.013 | 0.592 ± 0.0061 | 0.413 ± 0.027 | 0.612 ± 0.017 | 0.352 ± 0.0058 | 0.388 ± 0.026 | 0.5961 ± 0.00089
30 | RWTKMNNLIIEF | 0.7466 ± 0.0064 | 0.693 ± 0.0083 | 0.744 ± 0.0087 | 0.667 ± 0.013 | 0.742 ± 0.042 | 0.678 ± 0.012 | 0.648 ± 0.025 | 0.699 ± 0.026
